Measurements published in patent publication US20190185562A1.

Experiments:
[1] = molecular target: full length human GP130 (leucine at position 2 changed to valine) on HEK293/Stat3-luc/gp130-2X Sort cells (human) (UniProt P40189); assay: FACS, 200 nM antibody, HEK293/gp130 2X Sort cells
[2] = molecular target: extracellular domain of human LEPR, GPI-anchored on HEK293/hLEPR-GPI cells (human) (UniProt P48357); assay: FACS, 200 nM antibody, HEK293/hLEPR-GPI cells, No Leptin
[3] = molecular target: extracellular domain of human LEPR, GPI-anchored on HEK293/hLEPR-GPI cells (human) (UniProt P48357); assay: FACS, 200 nM antibody, HEK293/hLEPR-GPI cells, 1 µM Leptin present
[4] = molecular target: full length human GP130 (leucine at position 2 changed to valine) on HEK293/Stat3-luc/gp130-2X Sort cells (human) (UniProt P40189); assay: FACS, secondary antibody only, HEK293/gp130 2X Sort cells
[5] = molecular target: extracellular domain of human LEPR, GPI-anchored on HEK293/hLEPR-GPI cells (human) (UniProt P48357); assay: FACS, secondary antibody only, HEK293/hLEPR-GPI cells, No Leptin
[6] = molecular target: extracellular domain of human LEPR, GPI-anchored on HEK293/hLEPR-GPI cells (human) (UniProt P48357); assay: FACS, secondary antibody only, HEK293/hLEPR-GPI cells, 1 µM Leptin present
[7] = molecular target: full length (FL) human gp130 over-expressed on HEK293/Stat3-luc/gp130-2X Sort cells (human) (UniProt P40189); assay: FACS, secondary antibody alone, 293/Stat3-luc/GP130 2X sort cells
Sequence of full length (FL) human gp130 over-expressed on HEK293/Stat3-luc/gp130-2X Sort cells (human) (P40189 23-918): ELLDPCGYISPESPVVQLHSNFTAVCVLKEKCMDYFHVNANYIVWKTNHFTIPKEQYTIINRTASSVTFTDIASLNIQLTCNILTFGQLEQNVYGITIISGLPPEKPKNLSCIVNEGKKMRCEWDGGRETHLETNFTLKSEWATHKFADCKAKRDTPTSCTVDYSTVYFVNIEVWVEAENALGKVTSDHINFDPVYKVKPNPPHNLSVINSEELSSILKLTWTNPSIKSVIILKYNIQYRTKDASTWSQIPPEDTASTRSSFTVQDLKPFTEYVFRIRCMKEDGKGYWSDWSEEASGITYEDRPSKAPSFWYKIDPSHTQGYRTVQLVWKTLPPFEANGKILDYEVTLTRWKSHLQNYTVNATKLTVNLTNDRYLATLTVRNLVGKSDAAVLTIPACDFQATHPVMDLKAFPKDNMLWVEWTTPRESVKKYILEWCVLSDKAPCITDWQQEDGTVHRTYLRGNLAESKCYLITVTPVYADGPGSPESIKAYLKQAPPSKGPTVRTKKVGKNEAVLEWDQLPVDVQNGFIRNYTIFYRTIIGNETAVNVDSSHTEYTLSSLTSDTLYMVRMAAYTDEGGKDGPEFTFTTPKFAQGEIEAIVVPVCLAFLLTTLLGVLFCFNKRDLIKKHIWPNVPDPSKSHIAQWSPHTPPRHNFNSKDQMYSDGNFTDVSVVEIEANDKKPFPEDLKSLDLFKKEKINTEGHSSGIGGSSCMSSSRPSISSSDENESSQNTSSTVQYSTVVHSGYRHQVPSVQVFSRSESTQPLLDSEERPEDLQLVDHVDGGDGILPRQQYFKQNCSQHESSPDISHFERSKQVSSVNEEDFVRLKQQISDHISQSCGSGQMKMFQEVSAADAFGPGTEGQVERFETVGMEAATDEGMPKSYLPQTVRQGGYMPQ

[8] = molecular target: gp130 expressed endogenously on IMR-32/STAT3-Luc cells (human) (UniProt P40189); assay: FACS, secondary antibody alone, IMR-32/Stat3-luc cells, no hGP130.mmh
Sequence of gp130 expressed endogenously on IMR-32/STAT3-Luc cells (human) (P40189 23-918): as above

[9] = molecular target: gp130 expressed endogenously on IMR-32/STAT3-Luc cells (human) (UniProt P40189); assay: FACS, secondary antibody alone, IMR-32/Stat3-luc cells, 1 uM hGP130.mmh present
[10] = molecular target: gp130 expressed endogenously on IMR-32/STAT3-Luc cells (human) (UniProt P40189); assay: cell-based or functional assay

Sequence of extracellular domain of human LEPR, GPI-anchored on HEK293/hLEPR-GPI cells (human) (P48357 22-839 limits assumed): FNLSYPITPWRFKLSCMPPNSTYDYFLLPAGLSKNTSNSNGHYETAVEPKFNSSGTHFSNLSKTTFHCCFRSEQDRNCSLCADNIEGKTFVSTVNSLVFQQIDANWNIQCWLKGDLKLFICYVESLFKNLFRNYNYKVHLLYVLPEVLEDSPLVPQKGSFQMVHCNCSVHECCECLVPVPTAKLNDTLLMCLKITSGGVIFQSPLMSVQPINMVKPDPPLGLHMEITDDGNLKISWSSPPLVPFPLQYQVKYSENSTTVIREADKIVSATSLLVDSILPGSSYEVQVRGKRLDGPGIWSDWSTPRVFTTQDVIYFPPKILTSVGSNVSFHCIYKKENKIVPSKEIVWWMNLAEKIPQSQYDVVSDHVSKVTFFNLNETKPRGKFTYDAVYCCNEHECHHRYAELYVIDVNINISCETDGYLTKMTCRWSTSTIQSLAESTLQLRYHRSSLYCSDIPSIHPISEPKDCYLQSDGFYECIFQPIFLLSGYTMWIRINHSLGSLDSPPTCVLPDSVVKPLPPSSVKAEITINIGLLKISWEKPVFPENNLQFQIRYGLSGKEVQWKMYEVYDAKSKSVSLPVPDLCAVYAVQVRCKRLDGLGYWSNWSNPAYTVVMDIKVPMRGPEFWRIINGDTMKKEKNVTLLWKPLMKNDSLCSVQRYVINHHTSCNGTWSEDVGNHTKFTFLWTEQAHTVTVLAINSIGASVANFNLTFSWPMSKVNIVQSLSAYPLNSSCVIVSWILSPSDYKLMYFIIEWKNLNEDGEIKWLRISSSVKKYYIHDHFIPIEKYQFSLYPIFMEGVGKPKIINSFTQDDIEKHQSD
Sequence of full length human GP130 (leucine at position 2 changed to valine) on HEK293/Stat3-luc/gp130-2X Sort cells (human) (P40189 23-918): as the sequence (P40189 23-918) above

Isotype Control (antibody)
Binding Ratio: Normalized to Unstained Sample of Each Cell Line (FL4-A) [1]: 2
Binding Ratio: Normalized to Unstained Sample of Each Cell Line (FL4-A) [2]: 3
Binding Ratio: Normalized to Unstained Sample of Each Cell Line (FL4-A) [3]: 3

Secondary antibody alone
Binding Ratio: Normalized to Unstained Sample of Each Cell Line (FL4-A) [4]: 1
Binding Ratio: Normalized to Unstained Sample of Each Cell Line (FL4-A) [5]: 3
Binding Ratio: Normalized to Unstained Sample of Each Cell Line (FL4-A) [6]: 2

a-h 2″ alone (antibody)
MFI - Normalized to Unstained Control [7]: 2
MFI - Normalized to Unstained Control [8]: 4
MFI - Normalized to Unstained Control [9]: 8

human Leukemia Inhibitory Factor (from UniProt P15018 23-202) (ligand)
EC50 of activation of IMR-32/STAT3-luc cells (STAT3-luciferase) [10]: 0.023 nM
